{"source": "the nanobody polyreactivity screen of Harvey et al. (2022)"}
{"test": "yeast display, Sf9 membrane polyspecificity reagent, FACS + sequencing; frameworks hold sequencing errors", "outline": "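Nanobodies from a synthetic yeast display library (Saccharomyces cerevisiae BJ5465), induced 36–48 hours with galactose, were stained 1 hour at 4 °C with 10% biotinylated, detergent-solubilized Sf9 membrane reagent, enriched on streptavidin microbeads, then FACS-sorted. Anti-HA (expression) and streptavidin (reagent binding) fluorescence set low and high (top ~1%) gates. Polyreactivity labels come from the gate of origin. Genes were colony-PCR amplified, MiSeq 2 × 250 sequenced and filtered by CDR length.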"}
{"sequence": "QGQIVESGGGLGQAGGSLRLSCAASGSIFWANAMGWYSQSPWKERELVAAISSSGGRTYYADSVKGRFTISRDNAKNTVYLQMNSLKPEDTAVHYCNKLRLPYYEQGDYWGQGTQVTVSS", "polyreactivity (PSR sort gate)": "high polyreactivity"}
{"sequence": "QVQLVESGGGLVQAGGSLRLSCAASGRTFTYYAMGWYRQAPGKERELVAAIRYTGGSTHYADSVKGRFTISRDNAKNTVYLQIHSLKPEDTAVYYCGARRAYTRGGTVYFGYYYWGQGTQVTVSS", "polyreactivity (PSR sort gate)": "high polyreactivity"}
{"sequence": "QVQLVESRGGLVQAGGSLRLSCAASGPTFLINAMGCYRQAPGKETELVAEITGRGSSTYYADSVKGRFTISRDNAINTVYLQMNSLKAEDTAVYYCNAVLRKMTYDYWGQGTQVTVSS", "polyreactivity (PSR sort gate)": "high polyreactivity"}
{"sequence": "QVQLVESGGGLVQAGGSLRLSCAASGFTFSYNTMGWYRQAPGKERELVAAIDGSGGSTYYADSVKGRFTISRDNAKNTVYLQMNSLKPEDTAVYYCAAEWYRGGEYRRYDYWGQGTQVTVSS", "polyreactivity (PSR sort gate)": "high polyreactivity"}
{"sequence": "QVQLVESGRGLVQAGGSLRLSCAASGSIFGRNAMGWYRQAPGKERELVAAITWRGGRTYYADSVKGRFTISRDNAKNTVYLQMNSLKPEDTAVYYCAAVVAYQYTGYRFDYWGQGTQVTVSS", "polyreactivity (PSR sort gate)": "high polyreactivity"}
{"sequence": "QVQLVESGGGLVQAGGSLRLSCAASGRIFKLYAMGWYRQAPGKERELVAAISTSAGSTNYADSVKGRFTISRDNEKNTVYLQMNSLKPEDTAVYYCAVAGVSTYYTYYYWGQGTQVTVSS", "polyreactivity (PSR sort gate)": "low polyreactivity"}
{"sequence": "QVQLVESGRGLVQAGGSLRLSCAASGSTFKDYPMGWYRQAPGKESELVARISTRVGSTYYPDSVKGRFTISRDNAKNTVYLQMNRLNPEDTAVFYCNARWWYPPYYYWGQGTQVSVSS", "polyreactivity (PSR sort gate)": "high polyreactivity"}
{"sequence": "QVQLVESGGGLVQAGGSLRLSCAATGSIFEGYAMGWYRQAPGKERELVARITSDDDSTYYADSVKGRFTISRDNAKNSVYLQMNSLKPEDTAVYYCNADYYWTSLAMDSWGQGTQVTVSS", "polyreactivity (PSR sort gate)": "low polyreactivity"}
{"sequence": "QVQLVESGGGLVQAGGSLRLSCAASGSTFWFNDMGWYRQAPGKEREFVAAISSIGGSTYYADSVKGRFTISRDNAKNTVYLQMNSLKPEDTAVYYCAADRLQYYNPYDYWGQGTQVTVSS", "polyreactivity (PSR sort gate)": "low polyreactivity"}
{"sequence": "QVQLVESGGGLVQAGGSLRLSCAASGRNFYVYAMGWYRQAPGKERELVATISRGGSTTYADSVKGRFTISRDNAKNTVYLQMNSLKPEDTAVYYCATELLGGRRTVAYYWGQGTQVTVSS", "polyreactivity (PSR sort gate)": "low polyreactivity"}
{"sequence": "QVQLVESGGGLVQAGGSLRLSCAASGGTFTAYAMGWYRQAPGKERELVAAISASGDSTYYADSVKGRFTISRDNAKNTVYLQMNSLKPEDTAVYYCNADWYRTGRRGSDYWGQGTQVTVSS", "polyreactivity (PSR sort gate)": "low polyreactivity"}
{"sequence": "QVQLVESGGGLVQAGGSLRLSCAASGITFYRYAMGWYRQAPGKERELVAAISRSGGSTYYADSVKGRFTISRDNAKNTVYLQMNSLKPEDTAGYYCAAYILGNRDGYEYWGQGTQVTVSS", "polyreactivity (PSR sort gate)": "high polyreactivity"}
{"sequence": "QVQLVESGGRLVQAGGSLRLSCAASGLTITRNAMGWYRQAPGKERELVAAISWSGGSTYYADSVKGRFTISRDNAKNTVYLQMNSLKPEDTAVYDCAAEPYKQYTGYYYSGFEYWGQGTQVTVSS", "polyreactivity (PSR sort gate)": "high polyreactivity"}
{"sequence": "QVQLVESGGGLVQAGGSLRLSCAASRLTFSYYAMGWYRQAPGKERELVAAISERGGSTYYADSVKGRFTISRDNAKNTVYLQMNSLKPEDTAVYYCAADFVYGTRDDSWGQGTQVTVSS", "polyreactivity (PSR sort gate)": "high polyreactivity"}
{"sequence": "QVQLVESGGGLVQAGGRLRLSCAASGSIFSSNAMGWYRQAPGKERELVASIRGSGVSTYYADSVKGRFTISRDNAKNTVYLQMNSMKPEDTAVYYCAARYGRSYFGYYFWGQGTQVTVSS", "polyreactivity (PSR sort gate)": "high polyreactivity"}
{"sequence": "QVQLVESGGGLVQAGGSLRLSCAASGSIIAYYGMGWYRQAPGKESELVAAITSDASTYYADSVKWRFTISRDNAKKTDYLQMNSLKPVDTAVYYCYAYSYYYVYGYDMGYWGQGTQVTVSS", "polyreactivity (PSR sort gate)": "low polyreactivity"}
{"sequence": "QVQLVESGGGLVQAGGSLRLSCAASGFTIFYYAMGWYRQAPGKERELVASISWSGGSTYYADSVMGRFTISRENAKNSVYLQMNSLKPEDTAVYYCAADVPFGGDYWGQGTQVTVSS", "polyreactivity (PSR sort gate)": "low polyreactivity"}
{"sequence": "QVQLVESGGGLVQAGGSLRLSCAASGSTFYYNAMGWYRQAPGKEREFVAAINWRGGSTYYADSVKGRFTISRDNAKNTVYLQMNSLTPEDTAVYYCAAEEPSTYYYVRSGYDYHFWEMYSWGQGTQVTVSS", "polyreactivity (PSR sort gate)": "low polyreactivity"}
{"sequence": "QVQLEESGGGLVQAGGSHRLSCAASGSIIYPYTMGWYRQAPRKERELVAAISGGGRTYYADSVKGRFTISRDNAKNTVYLQMNSLIPEDTAVYYCAARRGYPSGYEYWGQGTQVSVSS", "polyreactivity (PSR sort gate)": "high polyreactivity"}
{"sequence": "QVQLVESGGGLVQAGGSLRITCAASGSTFGPYVMGWYRQAPGKEMELVAAISLSGASTYYADSVKGRFTISRDNAKNNVYLQMISLKPEETAVYYCAAQTPYGMYYWGQGTQVTVSS", "polyreactivity (PSR sort gate)": "low polyreactivity"}
{"sequence": "QVQLVESGGGLVQAGGSLRLSCAASGSTFAANAMGWYRQAPGKERELVAAITSSGGSTYYADSVKGRFTISRDNAKNTVYLQLNSLKPEVTAVYYCNKDIERYVRIYDSWGQGTQVTVSS", "polyreactivity (PSR sort gate)": "low polyreactivity"}
{"sequence": "QVQLVESGGGLVQAGGSLRFSCAASGRTFYRNVMGWYRQAPGKERELVAVITSGGSTNYADSVKGRFTISRDNAQNTVYLQMNSLKPEDTAVYYCNTALSSRSNKMYYWGQGTQVTVSS", "polyreactivity (PSR sort gate)": "high polyreactivity"}
{"sequence": "QVQLVESGGGLVQAGGSLRLSCAASGRICDFYSMGWYRQAPGKERELVAAIDSDGSTNYADSVKGRFTISRDNAKNNVYLQMNSLKPEDTAVSYCNADIWAYTYRRYDYWGQGTQVTVSS", "polyreactivity (PSR sort gate)": "low polyreactivity"}
{"sequence": "QVQLVESGGGLVQAGGSLRLSCAPSGRTFRRYAMGWYRQAPGKEMEFVAAISRRTASTYYADSVKGRFTISRDNAKNTDYLQMNSLKPEDTAVYYCATKSGYSVGNYRYGYWVQGTQVTVSS", "polyreactivity (PSR sort gate)": "low polyreactivity"}
{"sequence": "QVQLVESGGGLVQAGGSLRLRCAASGRTVVYYAMGWSRPAAGKETEFVATITSSGGSTYYADSVKGRFTISRDNAKNSVYLQMNSLKPEDTAVNYCAASPNIGYSKVSKYYYRGQGTQVTVSS", "polyreactivity (PSR sort gate)": "high polyreactivity"}
{"sequence": "QVQLVESGGGLVQAGGSLRLSCAASGSISTYYAMGWYRPAPGKERDLVAAISKSGGSKYYADSVKGRFTISRDNAKNTVYLQMNSLKPEDTAVYYCAARYKGRAFWMDYWGQGTQVTVSS", "polyreactivity (PSR sort gate)": "high polyreactivity"}
{"sequence": "QVHLVESGGGLVQAGGSLRLSCAASGRTFWVYAMGWYRQAPGKERQLVAAINRRGGGTYYADSVKGRFTISRDNAKNTVYLQMNTLKPEDTAVYYCAAVSTRVRVNYDSWGQGTQVTVSS", "polyreactivity (PSR sort gate)": "high polyreactivity"}
{"sequence": "QVQLVESGGGLVQAGGSLRLTCAASGSIFGTYAMGWYRQAPGKERQLVAAISWSDGSTYYADSVKGRFTISRDTAKNTFYLQMNSRKPEDTAVEYCAKVYRSIGPNVSRYGLSYYDWGHGTQVTVSS", "polyreactivity (PSR sort gate)": "low polyreactivity"}
{"sequence": "QVKLVESGGGLVQAGGSLRLSCAASGSTFASYAMGWYRQDPGKQRELVAAITRSGGSSTYADSVKGRFTISRDNAKITVYLQMNSLKPEDTAVYYCAARYLYSYYVSYDYWGQGTQLTVSS", "polyreactivity (PSR sort gate)": "high polyreactivity"}
{"sequence": "QVQLVESGGGLVQAGGSLRLSCAASGFTFDENAMGWSRQAPGINYSRASTYYADSVKGRFTISRDNAKNTVYLQMISLKPEDTAVYYCNKASYWGSGFDYWGQGTQVTVSS", "polyreactivity (PSR sort gate)": "low polyreactivity"}
{"sequence": "QVQLEESGGGLVQAGGSLRLSCAASGRNFTYNTMGWYRQAPGKERELVAAITSGGSTYYADSVKGRFTSSRDNAKNTVYLQMNSLKPEDTAVYYCAKRSWAYTDYFVSEYYWGQGTQVTVSS", "polyreactivity (PSR sort gate)": "high polyreactivity"}
{"sequence": "QVQLVESGGGLVQAGGSLRLSCAASGFTFISKAMGWYRQAPGKERELVAAISSSGGRTYYADSVKGRFTISRDHAKYTVYLQMNSLKPEDTALYYCNADRSLLYSRKIEYDYWGQGTQVTVSS", "polyreactivity (PSR sort gate)": "low polyreactivity"}
{"sequence": "PVQLEESGGGLVQAGGSLRLSCPASGTSAYYARGWYRQAPGKERALVAGISIGGSTNYADSVKGRFTITRDNAKNTVYVQMTSLKPEDTAVAYCSVDGYVAFSPDRNNYWGQGTQVTVSS", "polyreactivity (PSR sort gate)": "low polyreactivity"}
{"sequence": "QVQLVESGVGLVQAGGSLRLSCAASGSILSKNAMAWYREAPGNERELVAAITWSGGSTYYADSVKGRFTISRDNEKNTVYLQMNSLKPEDTAVSYCAADLDWSPHFGLPYDYWGQGTQVTVSS", "polyreactivity (PSR sort gate)": "low polyreactivity"}
{"sequence": "QVQLVESGGGLVQAGGSLRLSCAASGFNYYTMGWYRQAPGKERELVAAINYSGGRTYYADSVKGRFTISRDNAKNTVYLQMNSLKPEDTAVYYCNTARSPYDHRPERSYDYWGQGTQVTVSS", "polyreactivity (PSR sort gate)": "high polyreactivity"}
{"sequence": "QVQLVESGGGLVQAGGSLRVSCAASGRIFRWYAMGWYRQAPGKERELVAAITSRGTSTYYADSVKGRFTISRDNAKNTDYLQMNSLKPEDTAVYYCNAVPSRGYDYWGQGTQVTVSS", "polyreactivity (PSR sort gate)": "high polyreactivity"}
{"sequence": "QVQLVESGGGLVQAGGSLRLSCAASGSIFGFNAMGWYRQAPGKERELVAAISSGSTYYADSVKGRFTISRDNAKNTVYLQMNRLKPEDTAVYYCAATTGYSWYGYWGQGTQVTVSS", "polyreactivity (PSR sort gate)": "low polyreactivity"}
{"sequence": "QVQLEESGGGLVQAGGSLRLSCAASGSIFVTNVMGWYRQAPGKERELVAVINSGGRTYYADSVKGRFTISRDNAKNTVYLQMNSLKPEDTAVYYCAKDSWSSYPSLYPEFDYWGQGTQVTVSS", "polyreactivity (PSR sort gate)": "low polyreactivity"}
{"sequence": "QVQLVESGGGLVQAGVSLRLSCAASGSTFGENDMGWYRQAPGKERELVAAITWSGGSTYYADSVKGRFTISRDNAKNTVYLQMNSLNPEVTAVYYCNAEGVGRYSPVSHTFDYWGQGTQVTVSS", "polyreactivity (PSR sort gate)": "low polyreactivity"}
{"sequence": "QVQLVESGGGLVQAGGSLRLSCAASGSIFHNYDMGCYRQAPGKERELVADISRGGDTNYADSVKGRFTISRDNAKNTVYLQMNSLKPEDTAVYYCSADSADPTEYDYWGQGTQVTVSS", "polyreactivity (PSR sort gate)": "low polyreactivity"}
{"sequence": "QVQLVESGGGLVQAGGSLRLSCAATGSTFGPYVMGWYRQAPGKERELVAVISGGSTDYADSVKGRFTISRDNAKNTVYLQMNTLKPEDTAVYYCNAVLYVQDRLTRVDYDYWGQGTQVTVSS", "polyreactivity (PSR sort gate)": "high polyreactivity"}
{"sequence": "QVQLVESGGGLVQAGGSLRLSCAASGRIFGVNAMGWYRQAPGKERELVAAISRSGGSTYYADSVKGRFTISRDNAKNTVYLQMNSLKPEDTAVYYCAAVVKYRYSAYGGDYWRQGTQVTVSS", "polyreactivity (PSR sort gate)": "high polyreactivity"}
{"sequence": "QVQLVESGGGLVQAGGSLRLSCAASGRTYGIYAMGWYRQAPGKERELVADITIGGSTYYADSVMGRFTISRDNAKNTVYLQMNSLKPEDTAVYYCNADFVVQYYFTYYRVFTYDYWGLGTQVTVSS", "polyreactivity (PSR sort gate)": "low polyreactivity"}
